# Measurements: paper PMC11099136, “Structure, mechanism, and evolution of the last step in vitamin C biosynthesis” (Nature Communications, 2024)
# T1: vGalDH (synthetic construct, UniProt Z9D058OTD2)
# T1 construct: SUMO cleaved for crystals; noncovalent FAD
# T1 sequence (Z9D058OTD2 110-619): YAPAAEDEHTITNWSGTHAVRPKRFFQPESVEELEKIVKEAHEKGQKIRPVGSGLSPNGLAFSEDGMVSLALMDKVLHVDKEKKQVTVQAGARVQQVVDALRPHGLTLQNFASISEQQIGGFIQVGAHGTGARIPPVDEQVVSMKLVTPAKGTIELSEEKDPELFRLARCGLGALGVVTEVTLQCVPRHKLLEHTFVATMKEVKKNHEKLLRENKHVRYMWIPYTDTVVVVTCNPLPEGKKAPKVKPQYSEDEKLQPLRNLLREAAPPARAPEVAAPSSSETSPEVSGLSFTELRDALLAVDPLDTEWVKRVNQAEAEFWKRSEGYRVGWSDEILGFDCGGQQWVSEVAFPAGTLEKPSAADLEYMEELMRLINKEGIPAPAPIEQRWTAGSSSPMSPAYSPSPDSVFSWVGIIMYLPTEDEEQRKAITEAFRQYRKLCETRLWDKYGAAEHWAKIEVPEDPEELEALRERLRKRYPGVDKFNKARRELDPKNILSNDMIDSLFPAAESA
# Columns and labels:
# [1] = biological target: T1, vGalDH; assay: cytochrome c reduction at […] nm, Michaelis-Menten fit; type: biochemical; details: 50 μM equine cytochrome c, 50 mM potassium phosphate pH 8, 25 °C
# [2] = substrate: O=C1O[C@H]([C@@H](O)CO)[C@@H](O)[C@@H]1O; assay: oxygen consumption (Oxygraph), Michaelis-Menten fit; type: biochemical, synthetic construct; details: oxygen as co-substrate, 50 mM potassium phosphate pH 8, 25 °C
# Source text: (§1) oxygen consumption (Oxygraph), Michaelis-Menten fit on mGULO
# [3] = substrate: O=C1O[C@H]([C@@H](O)CO)[C@H](O)[C@@H]1O; assay: as above; type: biochemical, synthetic construct; details: oxygen as co-substrate, 50 mM potassium phosphate pH 8, 25 °C
# Source text: as §1
# [4] = substrate: O=C1O[C@H](CO)[C@@H](O)[C@@H]1O; assay: as above; type: biochemical, synthetic construct; details: oxygen as co-substrate, 50 mM potassium phosphate pH 8, 25 °C
# Source text: as §1
# [5] = substrate: O=C1O[C@H]([C@@H](O)CO)[C@@H](O)[C@@H]1O; assay: as above; type: biochemical, synthetic construct; details: oxygen as co-substrate, 50 mM potassium phosphate pH 8, 25 °C; remark: listed apart in the source
# Protocol: (§2) oxygen consumption (Oxygraph), Michaelis-Menten fit on tGULO | KM values in the sub-millimolar range were measured for mGULO and tGULO | also L-galactono-1,4-lactone (i.e.: GalDH substrate; Fig. 1A) and D-arabino-1,4-lactone (ALO substrate) are effectively oxidized
# [6] = substrate: O=C1O[C@H]([C@@H](O)CO)[C@H](O)[C@@H]1O; assay: as above; type: biochemical, synthetic construct; details: oxygen as co-substrate, 50 mM potassium phosphate pH 8, 25 °C; remark: listed apart in the source
# Protocol: as §2
# [7] = substrate: O=C1O[C@H](CO)[C@@H](O)[C@@H]1O; assay: as above; type: biochemical, synthetic construct; details: oxygen as co-substrate, 50 mM potassium phosphate pH 8, 25 °C; remark: listed apart in the source
# Protocol: as §2
# [8] = substrate: O=C1O[C@H]([C@@H](O)CO)[C@@H](O)[C@@H]1O; assay: as above; type: biochemical, synthetic construct; details: oxygen as co-substrate, 50 mM potassium phosphate pH 8, 25 °C; remark: listed apart in the source
# [9] = substrate: O=C1O[C@H]([C@@H](O)CO)[C@H](O)[C@@H]1O; assay: as above; type: biochemical, synthetic construct; details: oxygen as co-substrate, 50 mM potassium phosphate pH 8, 25 °C; remark: listed apart in the source
# [10] = substrate: O=C1O[C@H](CO)[C@@H](O)[C@@H]1O; assay: as above; type: biochemical, synthetic construct; details: oxygen as co-substrate, 50 mM potassium phosphate pH 8, 25 °C; remark: listed apart in the source
# [11] = substrate: O=C1O[C@H]([C@@H](O)CO)[C@@H](O)[C@@H]1O; assay: as above; type: biochemical, synthetic construct; details: oxygen as co-substrate, 50 mM potassium phosphate pH 8, 25 °C; remark: listed apart in the source
# Source text: (§3) oxygen consumption (Oxygraph), Michaelis-Menten fit on cGULO
# [12] = substrate: O=C1O[C@H]([C@@H](O)CO)[C@H](O)[C@@H]1O; assay: as above; type: biochemical, synthetic construct; details: oxygen as co-substrate, 50 mM potassium phosphate pH 8, 25 °C; remark: listed apart in the source
# Source text: as §3
# [13] = substrate: O=C1O[C@H](CO)[C@@H](O)[C@@H]1O; assay: as above; type: biochemical, synthetic construct; details: oxygen as co-substrate, 50 mM potassium phosphate pH 8, 25 °C; remark: listed apart in the source
# Source text: as §3
molecule,measurement,setting,value
"O=C1O[C@H]([C@@H](O)CO)[C@@H](O)[C@@H]1O [L-galactono-1,4-lactone]",Km,[1],16.6 ± 2.6 µM
"O=C1O[C@H](CO)[C@@H](O)[C@@H]1O [D-arabino-1,4-lactone]",Km,[1],1100 ± 100 µM
"O=C1O[C@H]([C@@H](O)CO)[C@H](O)[C@@H]1O [L-gulono-1,4-lactone]",Km,[1],2100 ± 300 µM
"mGULO (synthetic construct) (protein, His-SUMO fusion from pBAD in E. coli (tag kept in stopped-flow); membrane-associated, purified in reduced Triton X-100; covalent FAD) MVHGHKGVKFQNWAKTYGCSPEMYFQPTSVEEIREVLDLARQQNKRVKVVGGGHSPSDIACTDGFMIHMGKMNRILKVDKEKKQVTVEAGILLADLNVELSKHGLALSNLGAVSDVTAAGVIGTGTHNTGIKHGILATQVVALTLLTASGTILECSESSNAELFQAARVHLGCLGVILTVTFQCVPQFHLQETSFPSTLKEVLDNLDSHLKKSEYFRFLWFPHSENVSVIYQDHTNKPPSSSANWFWDYAIGFYLLEFLLWISTFLPCLVPWINRFFFWLLFTGKVENSNLSYKIFNYECRFKQHVQDWAIPIEKTKEALLELKAMLESNPKVVAHYPVEVRFTRGDDILLSPCFQRDSCYMNIIMYRPYGKDVPRLDYWLAYETIMKKVGGRPHWAKAHTCTRKDFEKMYPAFQKFCAIREKLDPTGMFLNAYLEKVFY",Km,[2],1900 ± 200 µM
same,kcat,[2],4.2 ± 0.1 s⁻¹
same,kcat/Km,[2],2200 M⁻¹ s⁻¹
same,Km,[3],800 ± 100 µM
same,kcat,[3],6.1 ± 0.1 s⁻¹
same,kcat/Km,[3],7600 M⁻¹ s⁻¹
same,Km,[4],3300 ± 400 µM
same,kcat,[4],0.5 ± 0.1 s⁻¹
same,kcat/Km,[4],150 M⁻¹ s⁻¹
"tGULO (synthetic construct) (protein, His-SUMO fusion from pBAD in E. coli; membrane-associated, purified in reduced Triton X-100; covalent FAD) MVQGHGGYKFQNWAQTYGCSPELYFQPTSVEEIKEILDLARQRSKRVKVVGGGHSPSDIACTDDFMIHMNKMNKILKVDKEKKQVTVEAGILLSDLNEELSKHGLALSNLGAVSDVAAAGVIGTGTHNTGIQHGILATQVVALTLMTASGEILECSESVNAELFQAARLHLGCLGVILTVTFQCVPAFHLQETQFPSTLKEVLDNLDSHLKKSEYFRFLWFPHTENVSVIYQDRTDKPPSSSANWFWDYAIGYYLLEFLLWISTFLPRLVPWINRFFFWLLYSGKVERVNLSYKVFNYECRFKQHVQDWAIPIEKTKEALLELKAWLESNPKVVAHFPVEVRFARGDDILLSPCYQRDSCYMNIIMYRPYGKDVPRQQYWLAYENIMKKVGGRPHWAKAHTCTRKDFEKMYPGFQKFCSIREKLDPTGMFLNTYLEKVFY",Km,[5],5400 ± 1200 µM
same,kcat,[5],1.3 ± 0.1 s⁻¹
same,Km,[6],800 ± 200 µM
same,kcat,[6],7.3 ± 0.5 s⁻¹
same,Km,[7],9400 ± 900 µM
same,kcat,[7],2.9 ± 0.1 s⁻¹
"jGULO (synthetic construct) (protein, His-SUMO fusion from pBAD in E. coli; membrane-associated, purified in reduced Triton X-100; covalent FAD) MVQGTEGYKFQNWAQTYSCQPELYFEPTSVEEIRQILELARQRSKRVKVVGCGHSPSDIACTDDYMIRMNKMNKILKVDKEKRQVTVEAGILLSDLNEELAKHGLALSNLGAVSDVTVAGVIGTGTHNTGIQHGILATQVVALTLMTASGEILECSESVNKEIFQAARLHLGALGVILTVTFQCEPAFRLHQQQFPSTLTEVLDNLDTHLKKSEYFRFLWFPHTDHVTVFYADRTDKPVQSTSSWFWDYAIGYYLLEFLLWISTFFPRLVPWINRFFFWLLYSAKVERVNRSDKVFNFECLFKQHVSDWAIPIEKTKAALLQLKEWLENNPDVRAHFPVEVRFVRADDILLSPCYQRDSCYINIIMYRPYGKDVPRERYWAAYEDIMKKVGGRPHWAKAHSCTRKDFEKMYPAFQKFCSIREKLDPSGMFLNTYLEKVFF",Km,[8],7100 ± 800 µM
same,kcat,[8],8.0 ± 0.3 s⁻¹
same,Km,[9],6900 ± 600 µM
same,kcat,[9],3.9 ± 1.3 s⁻¹
same,Km,[10],10700 ± 2500 µM
same,kcat,[10],2.9 ± 0.3 s⁻¹
"cGULO (synthetic construct) (protein, His-SUMO fusion from pBAD in E. coli; membrane-associated, purified in reduced Triton X-100; covalent FAD) MATGMKGYKFTNWAKTYSCQPELYFEPTTTEEIRQILELARQHSKRVKVVGCGHSPSDIACTTDYMISMKKFNKVLEVDKEKCQVTVQAGILLKDLNEELPKHGMALSNLGAVSDITVAGVISTGTHGTGVNYGILATHVVELTLMTASGEILKCSREENKDIFLAALCGLGALGIILTVTIQCEPAFKLHQKQFPCTLDEVLDNLDTHLKSSEHFRFMWFPHTDHVVVFHANRTDKPVQSTSSWFWDYLVGYYLLEFLLWISTFFPSLVPWINRFFFWLLYSQPKERVDRSDKVFNFECLFKQYVTEWAIPREKTAAVLLELKDWLESNPDFHAHFPVEVRFVRADDIYLSPCYQRDSCYINIIMYRPYGKDVPREKYWAAYEDIMMKVGGRPHWAKAHKVTAKDFQKMYPKFEKFCSIREKLDPQGMFLNSYLERVFF",Km,[11],11800 ± 1200 µM
same,kcat,[11],3.5 ± 0.3 s⁻¹
same,kcat/Km,[11],300 M⁻¹ s⁻¹
same,Km,[12],6100 ± 700 µM
same,kcat,[12],3.2 ± 0.1 s⁻¹
same,kcat/Km,[12],520 M⁻¹ s⁻¹
same,Km,[13],48600 ± 24000 µM
same,kcat,[13],0.6 ± 0.1 s⁻¹
same,kcat/Km,[13],12.3 M⁻¹ s⁻¹
